Data from PMC3462190, “A Peptidic Unconjugated GRP78/BiP Ligand Modulates the Unfolded Protein Response and Induces Prostate Cancer Cell Death” (PLoS ONE, 2012).
“Also recorded” adds a separate entry of the source. Where no end group is shown, it is not given here.

Test system: 22Rv.1 xenograft tumor
Assay: 22Rv.1 tumor xenograft study
Assay type: in vivo, athymic nude mice
Details: for tumor growth inhibition in vivo: xenografts of single 22Rv.1 clones stably expressing the peptide
Method: All animal experiments were performed according to European and German statutory regulations. For generation of xenograft models 5×10^6 LNCaP cells were resuspended in a solution of 50% Matrigel® (BD Bioscience, Heidelberg, Germany) in PBS or 5×10^6 22Rv.1 cells in 100 µl of PBS were subcutaneously injected into both flanks of 6–8 week-old athymic nude mice. Tumor size was measured with a caliper every week. Tumors derived from the injection of stable clones overexpressing the Bag-1 peptide were analyzed over a period of 9 weeks while tumors from cells transfected with the empty expression vector or expressing the N-terminal, the C-terminal and the ΔN-peptide were analyzed over 5 weeks. Tumor size was assessed measuring three perpendicular diameters according to the formula: V = (1/6) [π] (d1d2d3), where π is a mathematic constant and d1, d2 and d3 represent the three spatial dimensions (width, depth and height). Mice were euthanized by cervical dislocation and the tumors removed for further analysis.
Figure 4 The Bag-1 peptide inhibits prostate cancer cell growth in vivo. A. Stable clones of 22Rv.1 cells show reduced cell viability in vitro. Stable clones were seeded in a 96-well plate and the cell number in each well was estimated by measuring the ratio between the wavelength of excitation and emission 560/590 nm using the CellTiter-Blue™ proliferation assay. The bar charts represent the mean of at least four independent experiments ±SD (*p<0.05). B. Determination of the level of the Bag-1 expressed in the 22Rv.1 clones. Cellular extracts of 22v.1 stable clones were subjected to Western blot analysis. An anti-HA antibody was used to detect the peptide and an anti-β-actin antibody for equal loading control. C-D. The Bag-1 peptide reduces 22Rv.1 prostate tumor cell growth in vivo. Six-week old athymic nude mice were injected subcutaneously in both flanks with 5×10^6 cells of each stable clone. Tumor size was measured once per week using a caliper and expressed as tumor volume in mm^3. Shown are (C) the tumor volumes of clones transfected with empty expression vector and (D) clones expressing the Bag-1 peptide. Each point represents the mean volume and standard deviation of at least 5 to 10 tumors. E. Xenografts of stable clones expressing the Bag-1 peptide show increased apoptosis. Five-micron sections of formalin-fixed, paraffin-embedded tumor tissues were subjected to immunohistochemistry. Nuclei are stained blue-purple with hematoxylin while apoptotic cells detected with the TUNEL assay are stained brown. Representative sections of xenografts obtained from each 22Rv.1 stable clone were acquired with an Axioscop microscope (Zeiss). V: stands for empty vector expressing clone and P: peptide expressing clone.
Figure 5 An N-terminal unfolded fragment of the Bag-1 peptide is sufficient to reduce tumor cell growth. A. Schematic diagram of the Bag-1 peptide and its deletion mutants. The ubiquitin-like domain is represented in blue and the BAG domain in red. The numbers refer to the amino acid positions of the different domains. The amino acid residues are numbered following the numbering for Bag-1L. B. Prediction of the secondary structure of the Bag-1 peptide, showing an N-terminal β-hairpin from the ubiquitin-like domain (blue) and a C-terminal α-helix from the BAG domain (red). C. Normalized circular dichroism spectra of the Bag-1 peptides. 30 µM of the Bag-1 peptide were measured in 20 mM KHPO4 buffer, pH 6.8 (black line). Its α-helical content was estimated to be approximately 25% by deconvolution of the spectra (red line). 12 µM of the N-term peptide (green line) and 11 µM of C-term (blue line) were measured under the same conditions. D. ^1H^15N-HSQC NMR spectrum of ^15N-labeled Bag-1 peptide (202–269) in 20 mm KHPO4 buffer, pH 6.8, at 23°C. […] The Hδ and Hε side chain signals of asparagine and glutamine are connected by thin lines. […]

## C-terminal peptide: 28 C-terminal fragment of the Bag-1 peptide (Bag-1L 241–269) (EKIADQLEELNKELTGIQQGFLPKDLQAE; not fully specified)
  tumor growth inhibition in vivo: This effect was not seen

## N-terminal peptide: N-terminal 40 residues of the Bag-1 peptide (Bag-1L 202–241) (TPLSALGIQDGCRVMLIGKKNSPQEEVELKKLKHLEKSVE; not fully specified)
  tumor growth inhibition in vivo: reduces tumor growth in vivo; also recorded: growth inhibitory action of the peptides was also confirmed in xenograft models

## ΔUbi peptide: Bag-1 peptide lacking the ubiquitin-like domain portion (Bag-1L 220–269) (KKNSPQEEVELKKLKHLEKSVEKIADQLEELNKELTGIQQGFLPKDLQAE; not fully specified)
  tumor growth inhibition in vivo: This effect was not seen

B1: Bag-1 peptide: internal sequence of 68 amino acids of Bag-1 (Bag1-L 202–269), HA-tagged, expressed from pcDNA3 (peptide)
chain: TPLSALGIQDGCRVMLIGKKNSPQEEVELKKLKHLEKSVEKIADQLEELNKELTGIQQGFLPKDLQAE
modifications: also: HA tag, end not given here
22Rv.1 cells expressing the peptide (P42, P25 and P29), 9 weeks, empty vector: average 1.2 cm^3 in 4–8 weeks
  tumor volume: 0.4 cm^3
22Rv.1 clone P25, termination 7–9 weeks, mean and SD of 4–10 tumors, vector clones 1.24–1.73 g
  Tumor weight, clone P25: 0.31 ± 0.14 g
22Rv.1 clone P29, termination 9 weeks, mean and SD of 4–10 tumors, vector clones 1.24–1.73 g
  Tumor weight, clone P29: 0.42 ± 0.17 g
22Rv.1 clone P42, termination 9 weeks, mean and SD of 4–10 tumors, vector clones 1.24–1.73 g
  Tumor weight, clone P42: 0.38 ± 0.20 g
22Rv.1 peptide clone 25, mice euthanized earlier than 9 weeks
  tumor condition: the tumors were necrotic
